How the values were obtained:
Assay in all cases: cell-based or functional assay
[1] = biological target: G protein of RSV A/A2 (virus, ATCC Cat. No. VR-1540) (Respiratory syncytial virus A/A2) (UniProt P03423)
[2] = biological target: G protein of RSV A/Long (virus, ATCC Cat. No. VR-26) (Respiratory syncytial virus A/Long) (UniProt P20895)
[3] = biological target: G protein of RSV B/18537 (virus, ATCC Cat. No. VR-1580) (Respiratory syncytial virus B/18537) (UniProt P20896)

“CR9514 (an antibody based on 3D3, comprising the heavy and light chain variable region of 3D3)” was tested, and the Neutralization IC50 (plaque reduction assay, Vero cells) [1] was 0.0407 µg/mL, the Neutralization IC50 (plaque reduction assay, Vero cells) [2] was 0.017 µg/mL and the Neutralization IC50 (plaque reduction assay, Vero cells) [3] was 0.033 µg/mL.

From patent US20160145321A1
